Assay results from paper PMC11286772, “Structural basis of antagonist selectivity in endothelin receptors” (Cell Discovery, 2024).
Changes are numbered by the printed parent chain.

Tests used:
[1] = target: T1, ETA WT (Homo sapiens, UniProt P25101); test: Calcium mobilization assay, antagonist mode (ET-1 stimulated), CHO-K1 cells; type: cell-based
T1 construct: expressed in transfected cells; host or cells: CHO-K1
T1 sequence (P25101 21-427): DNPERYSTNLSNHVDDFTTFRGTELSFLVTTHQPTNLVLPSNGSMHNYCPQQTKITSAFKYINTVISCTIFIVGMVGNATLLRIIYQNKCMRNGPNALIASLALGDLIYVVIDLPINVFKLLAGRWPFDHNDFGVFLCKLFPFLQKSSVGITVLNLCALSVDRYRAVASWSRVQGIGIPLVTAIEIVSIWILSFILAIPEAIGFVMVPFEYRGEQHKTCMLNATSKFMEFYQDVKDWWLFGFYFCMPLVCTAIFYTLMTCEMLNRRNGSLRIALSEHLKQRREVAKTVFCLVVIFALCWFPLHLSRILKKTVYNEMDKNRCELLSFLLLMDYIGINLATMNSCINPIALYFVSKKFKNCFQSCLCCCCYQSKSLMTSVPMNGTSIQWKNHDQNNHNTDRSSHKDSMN
Method: CHO-K1 cells were cultured in Ham’s F-12K (Kaighn’s) Medium (Gibco-Thermo Fisher Scientific) supplemented with 10% (v/v) fetal bovine serum (FBS; Gibco-Thermo Fisher Scientific), and 100 U/mL Penicillin-Streptomycin (Gibco-Thermo Fisher Scientific) in a humidified incubator at 37 °C with 5% CO2. Cells were seeded in 6-cm dishes overnight; when the density reached 60%–80%, the cells were transferred to F12K Medium supplemented with 10% FBS and transfected with 1.5 μg DNA encoding the ETA WT or mutants or 3 μg DNA encoding the ETB WT or mutants using TransIT2020 (Mirus Biosciences). The next day, transfected cells were harvested from the plate using Versene buffer (Gibco-Thermo Fisher Scientific) and seeded into black-sided, clear-bottomed 384-well plates (Agilent) at a density of 1,5000 cells per well. After 20 h, the 1% dFBS medium was removed, and cells were loaded with 20 μL/well of 1× Calcium 6 dye (Molecular Devices) and incubated at 37 °C for 1 h in the dark. […] All data were analyzed using GraphPad Prism 8 and the data are from at least three independent replicate experiments. All plots are shown as means ± SEM. Data were determined using one-way ANOVA followed by Dunnett’s multiple test compared with WT. The top value was normalized to 100% and the bottom value was normalized to 0% for the final presentation. […]

[2] = target: T2, ETA G233^ECL2A (Homo sapiens, UniProt P25101, G233A); test: Size exclusion chromatography analysis of Fab301 binding; conditions: ETA G233^ECL2A mutant vs WT
T2 construct: expressed in transfected cells; host or cells: CHO-K1
T2 sequence (P25101 21-427 G233A): T1 sequence (P25101 21-427) with G213A
Excerpt: (§1) To pinpoint the exact ECL2 residues involved in binding, we performed an extensive alanine scanning mutagenesis. Our size exclusion chromatography analysis identified that the region spanning residues 230^ECL2–235^ECL2 in ETA, and in particularly, residues R232^ECL2 and G233^ECL2, are crucial for Fab301 binding. […] Moreover, the hydrophobic interactions at this interface are crucial for antibody binding, as confirmed by our calcium mobilization assay on Fab301 (Supplementary Fig. S9b). Within this model, E230^ECL2 establishes hydrogen bonds with the CDRL1 and CDRL2 regions of Fab301, whereas Y231^ECL2 and E234^ECL2, together with R232^ECL2, participate in a complex hydrogen bond network within the CDRH3 region of Fab301 (Fig. 6c).

[3] = target: T3, ETA R232^ECL2A (Homo sapiens, UniProt P25101, R232A); test: as above; conditions: ETA R232^ECL2A mutant vs WT
T3 construct: expressed in transfected cells; host or cells: CHO-K1
T3 sequence (P25101 21-427 R232A): T1 sequence (P25101 21-427) with R212A
Excerpt: as §1

Effect on ET-1-induced ETA signaling [1]: antagonistic effects | Fab301's binding to ETA [2]: near-complete loss | Fab301's binding to ETA [3]: near-complete loss
B1: Fab301: ETA-specific antibody Fab fragment produced from Getagozumab (antibody, V domains shown)
VH: QVTLKESGPTLVKPTQTLTLTCTFSGFSLTTSGLGVAWIRQPPGKALEWLAHIWSDGDTRYYPALKNRLTITKDTSKNQVVLTMTNMDPVDTATYYCAHMKDDSLYFDNWGQGTLVTVSS
VL: EIVLTQSPDFQSVTPKEKVTITCRASQNIGTSIHWYQQKPDQYPKLLIKYASKSISGVPSRFSGSGSGTDFTLTINSLEAEDAATYYCQHSYSFPWTFGQGTKVEIK
